Experimental data as given in patent US20070167369A1, “Novel use of isolated polypeptide comprising four FAS-1 domains, EM1 domain and RGD motif” (KYUNGPOOK NATIONAL UNIVERSITY INDUSTRY-ACADEMIC COOPERATION …, priority 2004, published 2007).

Columns and labels:
Assay type in all cases: cell-based, human
[1] = system: HUVEC; test: Adhesion of endothelial cells to vitronectin (Example 13-1)
Procedure: Flat-bottomed 96-well ELISA plates (Costar, Corning, Inc., NY) were incubated overnight at 4° C. with 5 μg/ml of vitronectin (Promega, Madison, Wis.) and blocked for 1 hour at room temperature with PBS containing 2% bovine serum albumin (BSA).
Primary human umbilical vein endothelial cells (HUVEC) were cultured at 37° C. in 5% CO2 in M199 medium supplemented with 20% fetal bovine serum. For all the experiments, HUVECs were used at passage 4 or less. HUVEC cells were suspended in medium at a density of 3×10^5 cells/ml, and 0.1 ml of the cell suspension was pre-incubated with or without the indicated concentration of the truncated βig-h3, the fas-1 domain and Regenin for 40 min at 37° C., then added to each well of the coated. After incubation for 5 to 10 minutes at 37° C., unattached cells were removed by rinsing with PBS. Attached cells were then incubated for 1 hour at 37° C. in 50 mM citrated buffer (pH 5.0) containing 3.75 mM p-nitrophenyl-N-acetyl-Dglycosamide and 0.25% Triton X-100. Enzyme activity was blocked by adding 50 mM glycine buffer (pH 10.4) containing 5 mM EDTA, and the absorbance was measured at 405 nm in a Bio-Rad model 550 microplate reader.

[2] = system: HUVECs; test: Migration of endothelial cells to vitronectin, transwell (Example 13-2)
Procedure: Cell migration assays were done in transwell plates (8 μm pore size, Costar, Cambridge, Mass.). The undersurface of the membrane was coated with 5 μg/ml of vitronectin at 4° C. and blocked for 1 hour at room temperature with PBS containing 2% BSA. HUVECs were suspended in medium at a density of 3×10^5 cells/ml, and 0.1 ml of the cell suspension was pre-incubated with or without the indicated concentration of the truncated βig-h3, the fas-1 domain and Regenin for 40 min at 37° C., then added to the upper compartment of the filter. Cells were allowed to migrate for 4 to 6 hours at 37° C. The filters were fixed with 8% glutaraldehyde and stained with crystal violet, and non-migrating cells on the upper surface of the filter were removed by wiping with a cotton swab. The extent of cell migration was determined by light microscopy, and within each well, counting was done in nine randomly selected microscopic high power fields (x200).

[3] = system: HUVECs; test: Endothelial tube formation in Matrigel (Example 14)
Procedure: Matrigel (Chemicon, International Inc, Temecula, Calif.) was added (100 μl) into each well of a 96-well plate and polymerized for 30 minutes at 37° C. HUVECs were suspended in medium at a density of 3×10^5 cells/ml, and 0.1 ml of the cell suspension was pre-incubated with or without the indicated concentration of the truncated βig-h3, the fas-1 domain and Regenin for 40 min at 37° C., then seeded on the surface of the Matrigel. Cells were incubated for 6 to 10 hours at 37° C. The cells were then photographed, and branch points from 4 high-power fields (x200) were counted and averaged.

[4] = system: HUVECs; test: Endothelial tube formation assay on Matrigel (Examples 9-1 and 11); settings: Example 11; controls BSA or Nus protein
Procedure: First, 100 μl of Matrigel (Chemicon, International Inc, Temecula, Calif.) was added to each well of a 96-well plate and allowed to polymerize. HUVECs were suspended in medium at a density of 3×10^5 cells/ml, and 0.1 ml of the cell suspension was added to each well of the plate coated with Matrigel. At this time, 5 μM or 10 μM of the fas-1 domain (βig-h3 D-IV) prepared in Example 1 above was added together. A control was either treated with BSA or had no treatment. Thereafter, the cells were incubated at 37° C. for 16-18 hours. The cells were photographed, and endothelial tubes were counted and averaged.
For this purpose, the second fas-1 domain of βig-h3 (βig-h3 D-II) was prepared in the same manner as in Example 1-1 above. Since each domain of stabilin-II is insoluble, it was prepared in the form of soluble protein by cloning into the BamHI/XhoI sites of a Nus-conjugated pET43.1 vector (Novagen, USA). The prepared recombinant proteins were named “Nus-fas3” and “Nus-fas7”, respectively. A control to the second fas-1 domain of βig-h3 was treated with BSA, and a control to the fas-1 domain of stabilin-II was treated with a Nus protein. Thereafter, an endothelial tube formation assay was performed in the same manner as in Example 9-1.

B1: Regenin: size control of truncated βig-h3: protein that expresses four copies of the fourth fas-1 domain (protein)
chain: MGTVMDVLKGDNRFSMLVAAIQSAGLTETLNREGVYTVFAPTNEAFRALPPRERSRLLGDAKELANILKYHIGDEILVSGGIGALVRLKSLQGDKLEVSLKNNVVSVNKEPVAEPDIMATNGVVHVITNVLMGTVMDVLKGDNRFSMLVAAIQSAGLTETLNREGVYTVFAPTNEAFRALPPRERSRLLGDAKELANILKYHIGDEILVSGGIGALVRLKSLQGDKLEVSLKNNVVSVNKEPVAEPDIMATNGVVHVITNVLMGTVMDVLKGDNRFSMLVAAIQSAGLTETLNREGVYTVFAPTNEAFRALPPRERSRLLGDAKELANILKYHIGDEILVSGGIGALVRLKSLQGDKLEVSLKNNVVSVNKEPVAEPDIMATNGVVHVITNVLMGTVMDVLKGDNRFSMLVAAIQSAGLTETLNREGVYTVFAPTNEAFRALPPRERSRLLGDAKELANILKYHIGDEILVSGGIGALVRLKSLQGDKLEVSLKNNVVSVNKEPVAEPDIMATNGVVHVITNVL
Question: B1 was tested. Which “inhibition of adhesion to vitronectin” value ([1]; 500 nM) did it give?
Answer: ineffective

Question: And the “inhibition of adhesion to vitronectin” value ([1]; various concentrations, vitronectin 5 μg/ml)?
Answer: dose-dependent inhibition

Question: And the IC50 ([2]; read-out: half-inhibition of migration toward vitronectin observed at)?
Answer: 5 µM

Question: And the “inhibition of migration to vitronectin” value ([2]; various concentrations, 4 to 6 hours)?
Answer: dose-dependent inhibition

Question: What about the “70%-inhibition of tube formation observed at” value ([3]; concentration giving 70% inhibition) of the same molecule?
Answer: 5 µM

Question: What about the “inhibition of tube formation” value ([3]; various concentrations, 6 to 10 hours) of the same molecule?
Answer: dose-dependent inhibition

B2: βig-h3 D-II: recombinant protein containing the second fas-1 domain of human βig-h3 (SEQ ID NO: 62) (protein, listed as Homo sapiens)
chain: NIQQIIEIEDTFETLRAAVAASGLNTMLEGNGQYTLLAPTNEAFEKIPSETLNRILGDPEALRDLLNNHILKSAMCAEAIVAGLSVETLEGTTLEVGCSGDMLTINGKAIISNKDILATNGVIHYIDELLI
Question: B2 was tested. Which “inhibition of endothelial tube formation by various fas-1 domains” value [4] did it give?
Answer: completely inhibited
